From patent publication US20260193326A1 (published 2026)

Tests used:
Assay in all cases: SPR, AAV amine-coupled to CM5 chip;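 note: nanobodies flowed as analyte at seven concentrations spanning 1–100 nM over immobilized AAV (500–800 RU), kinetic constants derived by fitting the binding curves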
[1] = target: T1, AAV8 (adeno-associated virus 8)
T1 construct: also called adeno-associated virus serotype 8
Protocol: (§1) AAV was amine-coupled to a CM5 sensor chip at a density of 500-800 response units (RU). Nanobodies were injected at seven concentrations (1-100 nM) with a flow rate of 45 μL/min, and chip regeneration was performed using glycine-HCl (pH 1.5). Binding curves at different nanobody concentrations were used to calculate kinetic parameters (Kₐ, Kd, KD) (Table 2 and FIG. 2).

[2] = target: T2, AAV5 (adeno-associated virus 5)
T2 construct: also called adeno-associated virus serotype 5
Protocol: as §1

[3] = target: T3, AAV9 (adeno-associated virus 9)
T3 construct: also called adeno-associated virus serotype 9
Protocol: as §1

[4] = target: T4, AAV2 (adeno-associated virus 2, UniProt P03135 1-735)
T4 construct: also called adeno-associated virus serotype 2
Protocol: as §1

Row | Binder | Kd [1] | koff [1] | kon [1] | Kd [2] | koff [2] | kon [2] | Kd [3] | koff [3] | kon [3] | Kd [4] | koff [4] | kon [4]
1 | A4-089 (VHH) VHH: VQLQESGGGLVQPGGSLRLSCAASGSNFSINTMGWYRQAPGKQRELVATFTRAGNTNYADSVKGRFTISRDNGKNTVYLQMNSLRPEDTAVYYCHVDEVRDSSWTTSNLWGQGTQVTVSS | 4.48 nM | 0.00054 s⁻¹ | 121000 M⁻¹ s⁻¹ | 163 nM | 0.00099 s⁻¹ | 6080 M⁻¹ s⁻¹ | 2.29 nM | 0.00041 s⁻¹ | 179000 M⁻¹ s⁻¹ | 4.28 nM | 0.0008 s⁻¹ | 187000 M⁻¹ s⁻¹
2 | A4-076 (VHH) VHH: VQLQESGGGLVHSGGSLRLSCAASGSMFSLNTMGWYRQAPGKQRELVATITRGGGTSYADSVKGRFTISRDNAKNTVYLQMNSLRPEDTAVYYCHVDELRQSSWTTSNLWGQGTQVTVSS | 98.1 nM | 0.00092 s⁻¹ | 9380 M⁻¹ s⁻¹ | 37 nM | 0.00015 s⁻¹ | 4060 M⁻¹ s⁻¹ | 8.16 nM | 6e-05 s⁻¹ | 7360 M⁻¹ s⁻¹ | 73.6 nM | 0.00056 s⁻¹ | 7610 M⁻¹ s⁻¹
3 | A4-099 (VHH) VHH: VQLQESGGGLVQTGGSLRLSCAASGSSFSINTMGWYRQAPGKWRELVAAVTRGGDTNYAESVKGRFTISRDNGKNTVYLQMNSLRPEDTAVYYCHIDEIRESSWTTSNLWGQGTQVTVSS | 2.57 nM | 0.0005 s⁻¹ | 194000 M⁻¹ s⁻¹ | 4.19 nM | 0.00041 s⁻¹ | 98000 M⁻¹ s⁻¹ | 0.203 nM | 3e-05 s⁻¹ | 148000 M⁻¹ s⁻¹ | 1.06 nM | 0.00021 s⁻¹ | 197000 M⁻¹ s⁻¹
4 | A4-074 (VHH) VHH: VQLQESGGGLVQSGGSLRLSCAASGSMFSLNTMGWYRQAPGKQRELVATITRGGGTSYADSVKGRFTISRDNAKNTVYLQMNSLRPEDTAVYYCHVDELRQSSWTTSNLWGQGTQVTVSS | 19.2 nM | 0.00181 s⁻¹ | 94100 M⁻¹ s⁻¹ | 4.64 nM | 0.00081 s⁻¹ | 175000 M⁻¹ s⁻¹ | 6.03 nM | 0.00017 s⁻¹ | 28200 M⁻¹ s⁻¹ | 14.3 nM | 0.00157 s⁻¹ | 110000 M⁻¹ s⁻¹
5 | A4-093 (VHH) VHH: VQLQESGGGLVQTGGSLRLSCAASGSIFIINTMGWYRQRAGKQRELVATVTRGGSTNYADSVKGRFTISRDNAKNTVYLQMNTLRPEDTAVYYCHVDELRQSSWTTSNLWGQGTQVTVSS | 11.8 nM | 0.00196 s⁻¹ | 166000 M⁻¹ s⁻¹ | 8.21 nM | 0.00114 s⁻¹ | 139000 M⁻¹ s⁻¹ | 15.5 nM | 0.0011 s⁻¹ | 70800 M⁻¹ s⁻¹ | 46 nM | 0.00103 s⁻¹ | 22400 M⁻¹ s⁻¹
6 | A4-092 (VHH) VHH: VQLQESGGGLVQTGGSLRLSCLASGSIFSINTMGWYRQRAGKQRELVATVTRAGSTNYADSVKGRFTISRDNAKNTVYLQMNSLRPEDTAVYYCHVDEIRESSWTTSNLWGQGTQVTVSS | 0.106 nM | 2e-05 s⁻¹ | 188000 M⁻¹ s⁻¹ | 0.194 nM | 1e-05 s⁻¹ | 51600 M⁻¹ s⁻¹ | 1.06 nM | 9e-05 s⁻¹ | 84900 M⁻¹ s⁻¹ | 1.09 nM | 6e-05 s⁻¹ | 55100 M⁻¹ s⁻¹
7 | A4-083 (VHH) VHH: VQLQESGGGLVQTGGSLKLSCAASGSRFSLNTMGWYRQAPRKQREFVAAVTRGGNTNYGDFVKGRFTISRDNAKNTVYLQMNSLRPEDTAVYYCHVDELRESSWTTSNLWGQGTQVTVSS | 42.4 nM | 0.00737 s⁻¹ | 174000 M⁻¹ s⁻¹ | 31 nM | 0.00287 s⁻¹ | 92500 M⁻¹ s⁻¹ | 92.3 nM | 0.00657 s⁻¹ | 71200 M⁻¹ s⁻¹ | 944 nM | 0.00344 s⁻¹ | 3640 M⁻¹ s⁻¹
